# Experimental data: patent publication US9320812
# T1: human ephrin-A4 (human, UniProt P52798)
# T1 chain: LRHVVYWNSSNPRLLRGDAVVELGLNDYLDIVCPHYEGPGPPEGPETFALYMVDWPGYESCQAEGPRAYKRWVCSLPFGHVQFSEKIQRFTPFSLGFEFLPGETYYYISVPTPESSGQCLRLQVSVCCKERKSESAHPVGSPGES
# B1: SC4.47 (antibody, V domains shown)
# VH: EVQLQQSGPELVKPGASVKISCTASGYTFTYFYMNWVKQSQGKSLEWVGQINPNNGGTAYNHKFRGKTTLTVDKSSNTAFMELRSLTSEDSAVYFCARWVGTHYFDYWGQGTTLTVSS
# VL: DIVLTQSPASLPVSLGQRATISCRASQSVSSSSYTYIHWYQQKPGQPPKLLINFASNLESGVPARFSVSGSGTDFTLNIHPVEGEDTATYYCQHSWEIPPTFGGGTKLEIK
# B2: EphB4-Fc (protein)
# chain: LEETLLNTKLETADLKWVTFPQVDGQWEELSGLDEEQHSVRTYEVCDVQRAPGQAHWLRTGWVPRRGAVHVYATLRFTMLECLSLPRAGRSCKETFTVFYYESDADTATALTPAWMENPYIKVDTVAAEHLTRKRPGAEATGKVNVKTLRLGPLSKAGFYLAFQDQGACMALLSLHLFYKKCAQLTVNLTRFPETVPRELVVPVAGSCVVDAVPAPGPSPSLYCREDGQWAEQPVTGCSCAPGFEAAEGNTKCRACAQGTFKPLSGEGSCQPCPANSHSNTIGSAVCQCRVGYFRARTDPRGAPCTTPPSAPRSVVSRLNGSSLHLEWSAPLESGGREDLTYALRCRECRPGGSCAPCGGDLTFDPGPRDLVEPWVVVRGLRPDFTYTFEVTALNGVSSLATGPVPFEPVNVTTDREVPPAVSDIRVTRSSPSSLSLAWAVPRAPSGAVLDYEVKYHEKGAEGPSSVRFLKTSENRAELRGLKRGASYLVQVRARSEAGYGPFGQEHHSQTQLDESEGWREQLA
# Tests used:
# [1] = biological target: T1, human ephrin-A4; assay: SPR
# [2] = biological target: T1, human ephrin-A4; assay: FACS
Kd [1],binding result [2],Binder
1.1 nM,–,B1
–,no binding,B2
